Test results published in patent US20070128190A1 (GLENMARK PHARMACEUTICALS S A, published 2007).

B1: TMC-2206 VH D100R variant antibody (antibody, V domains shown)
VH: QVQLKESGPGLVAPSQSLSITCTVSGFSLTNYGIHWVRQPPGKGLEWLGVIWARGFTNYNSALMSRLIITKDNSQSQVFLKMNSLQPDDSATYFCARANRGVYYAMDYWGQGTSVTVSS
VL: QFVLTQSPAFLSASPGEKVTMTCSANSSVNYIHWYQQKSGTSPKKWIYDTSKLASGVPVRFSGSGSGTSYSLTISSMETEDAATYYCQQWTTNPLTFGAGTRVELK
notes: variant murine VH-containing antibody; also called reverse charge mutant D100R
B2: humanized TMC-2206 variant hVH10.0/hVL1.0 (antibody, V domains shown)
VH: QVQLQESGPGLVKPSETLSLTCTVSGFSLTNYGIHWVRQPPGKGLEWLGVIWARGFTNYNSALMSRLTISKDTSKNQVSLKLSSVTAADTAVYFCARANDGVYYAMDYWGQGTLVTVSS
VL: QFVLTQSPAFLSVTPGEKVTITCSANSSVNYIHWYQQKPDQAPKKWIYDTSKLASGVPSRFSGSGSGTDYTFTISSLEAEDAATYYCQQWTTNPLTFGQGTKVEIK
notes: human IgG1/κ; also called change to Thr-H73
B3: humanized TMC-2206 variant hVH11.0, hVL1.0 (antibody, human IgG1, V domains shown)
VH: QVQLQESGPGLVKPSETLSLTCTVSGFSLTNYGIHWVRQPPGKGLEWIGVIWARGFTNYNSALMSRLTISKDNSKNQFSLKLSSVTAADTAVYFCARANDGVYYAMDYWGQGTLVTVSS
VL: QFVLTQSPAFLSVTPGEKVTITCSANSSVNYIHWYQQKPDQAPKKWIYDTSKLASGVPSRFSGSGSGTDYTFTISSLEAEDAATYYCQQWTTNPLTFGQGTKVEIK
notes: human IgG1/κ constant regions
B4: humanized TMC-2206 variant hVH1.0/hVL9.0 (antibody, V domains shown)
VH: QVQLQESGPGLVKPSETLSLTCTVSGFSLTNYGIHWVRQPPGKGLEWLGVIWARGFTNYNSALMSRLTISKDNSKNQVSLKLSSVTAADTAVYFCARANDGVYYAMDYWGQGTLVTVSS
VL: QFVLTQSPAFLSVTPGEKVTITCSANSSVNYIHWYQQKPDQAPKKWIKDTSKLASGVPSRFSGSGSGTDYTFTISSLEAEDAATYYCQQWTTNPLTFGQGTKVEIK
notes: human IgG1/κ; also called change of L49 to the human lysine
B5: humanized TMC-2206 variant hVH9.0, hVL1.0 (antibody, human IgG1, V domains shown)
VH: QVQLQESGPGLVKPSETLSLTCTVSGFSLTNYGIHWVRQPPGKGLEWIGVIWARGFTNYNSALMSRLTISVDNSKNQVSLKLSSVTAADTAVYFCARANDGVYYAMDYWGQGTLVTVSS
VL: QFVLTQSPAFLSVTPGEKVTITCSANSSVNYIHWYQQKPDQAPKKWIYDTSKLASGVPSRFSGSGSGTDYTFTISSLEAEDAATYYCQQWTTNPLTFGQGTKVEIK
notes: human IgG1/κ constant regions
B6: humanized TMC-2206 variant hVH4.0/hVL3.0 (antibody, human IgG1, V domains shown)
VH: QVQLQESGPGLVKPSETLSLTCTVSGFSLTNYGIHWIRQPPGKGLEWIGVIWARGFTNYNSALMSRLTISKDNSKNQVSLKLSSVTAADTAVYFCARANDGVYYAMDYWGQGTLVTVSS
VL: QFVLTQSPAFLSVTPGEKVTITCSANSSVNYIHWYQQKPDQAPKLLIYDTSKLASGVPSRFSGSGSGTDYTFTISSLEAEDAATYYCQQWTTNPLTFGQGTKVEIK
notes: human IgG1/κ constant regions
B7: humanized TMC-2206 variant hVH3.0/hVL1.0 (antibody, human IgG1, V domains shown)
VH: QVQLQESGPGLVKPSETLSLTCTVSGFSLTNYGIHWVRQPPGKGLEWLGVIWARGFTNYNSALMSRVTISVDTSKNQFSLKLSSVTAADTAVYFCARANDGVYYAMDYWGQGTLVTVSS
VL: QFVLTQSPAFLSVTPGEKVTITCSANSSVNYIHWYQQKPDQAPKKWIYDTSKLASGVPSRFSGSGSGTDYTFTISSLEAEDAATYYCQQWTTNPLTFGQGTKVEIK
notes: human IgG1/κ constant regions
B8: humanized TMC-2206 variant hVH1.0/hVL4.0 (antibody, human IgG1, V domains shown)
VH: QVQLQESGPGLVKPSETLSLTCTVSGFSLTNYGIHWVRQPPGKGLEWLGVIWARGFTNYNSALMSRLTISKDNSKNQVSLKLSSVTAADTAVYFCARANDGVYYAMDYWGQGTLVTVSS
VL: DVVMTQSPAFLSVTPGEKVTITCSANSSVNYIHWYQQKPDQAPKKWIYDTSKLASGVPSRFSGSGSGTDYTFTISSLEAEDAATYYCQQWTTNPLTFGQGTKVEIK
notes: human IgG1/κ constant regions
B9: humanized TMC-2206 variant hVH1.0/hVL3.0 (antibody, human IgG1, V domains shown)
VH: QVQLQESGPGLVKPSETLSLTCTVSGFSLTNYGIHWVRQPPGKGLEWLGVIWARGFTNYNSALMSRLTISKDNSKNQVSLKLSSVTAADTAVYFCARANDGVYYAMDYWGQGTLVTVSS
VL: QFVLTQSPAFLSVTPGEKVTITCSANSSVNYIHWYQQKPDQAPKLLIYDTSKLASGVPSRFSGSGSGTDYTFTISSLEAEDAATYYCQQWTTNPLTFGQGTKVEIK
notes: human IgG1/κ constant regions; also called VH1.0/VL3.0
B10: humanized TMC-2206 variant hVH3.0/hVL4.0 (antibody, human IgG1, V domains shown)
VH: QVQLQESGPGLVKPSETLSLTCTVSGFSLTNYGIHWVRQPPGKGLEWLGVIWARGFTNYNSALMSRVTISVDTSKNQFSLKLSSVTAADTAVYFCARANDGVYYAMDYWGQGTLVTVSS
VL: DVVMTQSPAFLSVTPGEKVTITCSANSSVNYIHWYQQKPDQAPKKWIYDTSKLASGVPSRFSGSGSGTDYTFTISSLEAEDAATYYCQQWTTNPLTFGQGTKVEIK
notes: human IgG1/κ constant regions
B11: humanized TMC-2206 variant hVH4.0/hVL1.0 (antibody, human IgG1, V domains shown)
VH: QVQLQESGPGLVKPSETLSLTCTVSGFSLTNYGIHWIRQPPGKGLEWIGVIWARGFTNYNSALMSRLTISKDNSKNQVSLKLSSVTAADTAVYFCARANDGVYYAMDYWGQGTLVTVSS
VL: QFVLTQSPAFLSVTPGEKVTITCSANSSVNYIHWYQQKPDQAPKKWIYDTSKLASGVPSRFSGSGSGTDYTFTISSLEAEDAATYYCQQWTTNPLTFGQGTKVEIK
notes: human IgG1/κ constant regions
B12: humanized TMC-2206 variant hVH3.0/hVL3.0 (antibody, human IgG1, V domains shown)
VH: QVQLQESGPGLVKPSETLSLTCTVSGFSLTNYGIHWVRQPPGKGLEWLGVIWARGFTNYNSALMSRVTISVDTSKNQFSLKLSSVTAADTAVYFCARANDGVYYAMDYWGQGTLVTVSS
VL: QFVLTQSPAFLSVTPGEKVTITCSANSSVNYIHWYQQKPDQAPKLLIYDTSKLASGVPSRFSGSGSGTDYTFTISSLEAEDAATYYCQQWTTNPLTFGQGTKVEIK
notes: human IgG1/κ constant regions
B13: humanized TMC-2206 variant hVH4.0/hVL4.0 (antibody, human IgG1, V domains shown)
VH: QVQLQESGPGLVKPSETLSLTCTVSGFSLTNYGIHWIRQPPGKGLEWIGVIWARGFTNYNSALMSRLTISKDNSKNQVSLKLSSVTAADTAVYFCARANDGVYYAMDYWGQGTLVTVSS
VL: DVVMTQSPAFLSVTPGEKVTITCSANSSVNYIHWYQQKPDQAPKKWIYDTSKLASGVPSRFSGSGSGTDYTFTISSLEAEDAATYYCQQWTTNPLTFGQGTKVEIK
notes: human IgG1/κ constant regions
B14: humanized TMC-2206 variant hVH1.0/hVL1.0Q (antibody, human IgG1, V domains shown)
VH: QVQLQESGPGLVKPSETLSLTCTVSGFSLTNYGIHWVRQPPGKGLEWLGVIWARGFTNYNSALMSRLTISKDNSKNQVSLKLSSVTAADTAVYFCARANDGVYYAMDYWGQGTLVTVSS
VL: QFVLTQSPAFLSVTPGEKVTITCSAQSSVNYIHWYQQKPDQAPKKWIYDTSKLASGVPSRFSGSGSGTDYTFTISSLEAEDAATYYCQQWTTNPLTFGQGTKVEIK
notes: human IgG1/κ constant regions; also called VH 1.0 VL 1.0Q
B15: humanized TMC-2206 variant hVH12.0/hVL10.0 (antibody, human IgG1, V domains shown)
VH: QVQLQESGPGLVKPSETLSLTCTVSGFSLTNYGIHWIRQPPGKGLEWLGVIWARGFTNYNSALMSRLTISKDNSKNQVSLKLSSVTAADTAVYYCARANDGVYYAMDYWGQGTLVTVSS
VL: DFVMTQSPAFLSVTPGEKVTITCSANSSVNYIHWYQQKPDQAPKKLIYDTSKLASGVPSRFSGSGSGTDYTFTISSLEAEDAATYYCQQWTTNPLTFGQGTKVEIK
notes: human IgG1/κ constant regions; also called VH 12.0 VL 10.0
B16: humanized TMC-2206 variant hVH14.0/hVL12.0Q (antibody, human IgG1, V domains shown)
VH: QVQLQESGPGLVKPSETLSLTCTVSGFSLTNYGIHWIRQPPGKGLEWLGVIWARGFTNYNSALMSRVTISKDNSKNQVSLKLSSVTAADTAVYYCARANDGVYYAMDYWGQGTLVTVSS
VL: DFVMTQSPAFLSVTPGEKVTITCSAQSSVNYIHWYQQKPDQAPKKLIYDTSKLASGVPSRFSGSGSGTDFTFTISSLEAEDAATYYCQQWTTNPLTFGQGTKVEIK
notes: human IgG1/κ constant regions; also called VH 14.0 VL 12.0Q
B17: humanized TMC-2206 variant hVH14.0/hVL12.0 (antibody, human IgG1, V domains shown)
VH: QVQLQESGPGLVKPSETLSLTCTVSGFSLTNYGIHWIRQPPGKGLEWLGVIWARGFTNYNSALMSRVTISKDNSKNQVSLKLSSVTAADTAVYYCARANDGVYYAMDYWGQGTLVTVSS
VL: DFVMTQSPAFLSVTPGEKVTITCSANSSVNYIHWYQQKPDQAPKKLIYDTSKLASGVPSRFSGSGSGTDFTFTISSLEAEDAATYYCQQWTTNPLTFGQGTKVEIK
notes: human IgG1/κ constant regions; also called VH 14.0 VL 12.0
B18: humanized TMC-2206 variant hVH14.0/hVL10.0 (antibody, human IgG1, V domains shown)
VH: QVQLQESGPGLVKPSETLSLTCTVSGFSLTNYGIHWIRQPPGKGLEWLGVIWARGFTNYNSALMSRVTISKDNSKNQVSLKLSSVTAADTAVYYCARANDGVYYAMDYWGQGTLVTVSS
VL: DFVMTQSPAFLSVTPGEKVTITCSANSSVNYIHWYQQKPDQAPKKLIYDTSKLASGVPSRFSGSGSGTDYTFTISSLEAEDAATYYCQQWTTNPLTFGQGTKVEIK
notes: human IgG1/κ constant regions; also called VH 14.0 VL 10.0

These binders were tested against T1, human platelet α2β1 integrin (immobilized on microtiter plates) (human, UniProt P17301 30-1181; P05556 21-798) (assay: competition with Eu-TMC-2206 on human platelet α2β1-coated plate).
T1 construct: plates custom-coated with human platelet α2β1 by GTI Inc; also called immobilized α2β1 integrin; α2β1-coated plates
T1 sequence (P17301 30-1181 E534K limits assumed, chain 1 of 2): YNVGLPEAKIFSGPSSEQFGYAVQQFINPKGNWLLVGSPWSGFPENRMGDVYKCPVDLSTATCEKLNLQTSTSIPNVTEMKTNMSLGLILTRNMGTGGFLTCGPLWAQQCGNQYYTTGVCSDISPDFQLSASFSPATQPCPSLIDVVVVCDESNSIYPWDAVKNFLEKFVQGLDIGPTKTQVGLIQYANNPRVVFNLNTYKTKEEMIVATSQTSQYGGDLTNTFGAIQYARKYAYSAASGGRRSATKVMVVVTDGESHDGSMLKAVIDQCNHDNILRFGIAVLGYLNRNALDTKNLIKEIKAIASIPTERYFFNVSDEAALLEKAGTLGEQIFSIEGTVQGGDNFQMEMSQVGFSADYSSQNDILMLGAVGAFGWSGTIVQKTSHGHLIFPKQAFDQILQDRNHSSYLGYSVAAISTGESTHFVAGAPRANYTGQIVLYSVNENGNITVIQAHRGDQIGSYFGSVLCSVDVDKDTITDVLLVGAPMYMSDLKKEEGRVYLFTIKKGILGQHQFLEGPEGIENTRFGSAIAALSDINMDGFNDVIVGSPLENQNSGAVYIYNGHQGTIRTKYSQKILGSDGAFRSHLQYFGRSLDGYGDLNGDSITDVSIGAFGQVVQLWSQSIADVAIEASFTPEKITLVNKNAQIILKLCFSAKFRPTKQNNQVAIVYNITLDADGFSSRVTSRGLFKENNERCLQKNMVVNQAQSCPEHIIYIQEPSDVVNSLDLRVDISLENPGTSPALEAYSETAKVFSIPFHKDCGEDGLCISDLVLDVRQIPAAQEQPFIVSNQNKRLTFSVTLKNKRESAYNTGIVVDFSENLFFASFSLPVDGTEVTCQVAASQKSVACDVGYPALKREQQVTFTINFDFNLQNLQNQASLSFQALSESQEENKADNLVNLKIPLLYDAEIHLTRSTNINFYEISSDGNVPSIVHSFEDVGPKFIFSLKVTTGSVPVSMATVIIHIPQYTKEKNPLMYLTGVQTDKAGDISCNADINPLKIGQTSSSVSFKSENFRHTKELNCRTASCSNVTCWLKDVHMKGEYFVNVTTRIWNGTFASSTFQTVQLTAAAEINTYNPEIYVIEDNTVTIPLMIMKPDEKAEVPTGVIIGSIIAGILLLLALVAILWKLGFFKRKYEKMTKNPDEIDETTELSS
T1 sequence (P05556 21-798 limits assumed, chain 2 of 2): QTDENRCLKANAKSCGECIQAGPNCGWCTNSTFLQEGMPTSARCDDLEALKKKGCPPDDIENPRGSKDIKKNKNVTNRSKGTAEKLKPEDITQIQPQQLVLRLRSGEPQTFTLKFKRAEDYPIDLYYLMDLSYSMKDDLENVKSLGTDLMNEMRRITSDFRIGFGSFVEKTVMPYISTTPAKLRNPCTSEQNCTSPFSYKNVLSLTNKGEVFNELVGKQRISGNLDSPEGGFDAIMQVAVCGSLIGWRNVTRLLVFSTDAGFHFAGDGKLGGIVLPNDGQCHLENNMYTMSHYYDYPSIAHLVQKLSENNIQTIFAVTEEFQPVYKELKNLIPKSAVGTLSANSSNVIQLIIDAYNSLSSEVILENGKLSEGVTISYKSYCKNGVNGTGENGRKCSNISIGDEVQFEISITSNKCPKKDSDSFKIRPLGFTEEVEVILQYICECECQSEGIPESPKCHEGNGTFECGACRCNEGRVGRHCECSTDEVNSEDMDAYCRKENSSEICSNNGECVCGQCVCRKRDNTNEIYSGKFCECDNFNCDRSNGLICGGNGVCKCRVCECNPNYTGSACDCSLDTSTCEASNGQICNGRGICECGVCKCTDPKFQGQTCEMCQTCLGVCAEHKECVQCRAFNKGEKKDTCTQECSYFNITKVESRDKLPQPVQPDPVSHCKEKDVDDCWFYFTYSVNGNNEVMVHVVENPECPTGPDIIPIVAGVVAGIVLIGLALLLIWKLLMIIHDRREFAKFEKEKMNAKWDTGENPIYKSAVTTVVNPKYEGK

In the case of B1, the Ki is reported as 0.41 nM.

In the case of B2, the “fold decrease as measured by Ki” value is reported as 1.6 fold.

With B3 the “fold decrease in potency compared to the hVH1.0, hVL1.0 variant (Ki)” value was 70 fold.

With B4 the “fold decrease in potency as measured by Ki” value was 3.3 fold.

For B5, the “fold decrease (Ki)” value was 6.4 fold.

Biological target: T1, human platelet α2β1 integrin …
Assay: as above
Remark: another data set of the same source
Method: (§1) Each labeled antibody mixture was applied to a separate PD-10 column (GE Biosciences, Piscataway, N.J.) pre-equilibrated with Running Buffer (50 mM Tris, pH 7.4 and 138 mM NaCl). Fractions (0.5 mL) were collected and assayed for total protein (Bradford reagent; Bio-Rad Laboratories, Hercules, Calif.) using a SpectraMax 384 absorbance plate reader and for europium after 1:10.000 dilution in DELFIA Enhancement Solution (Perkin-Elmer) by time-resolved fluorescence (TRF) using a Victor2 multi-label plate reader (Perkin Elmer). The fractions that were positive for both protein and Eu label were pooled and applied to new PD-10 columns and samples collected and assayed for total protein and for europium content by TRF calibrated against a europium standard solution (Perkin-Elmer) to calculate the fluor: protein ratio. […] After incubating the sealed plates for 1 hr at 37° C. to allow binding to reach equilibrium, 2 μL samples were transferred from each well into a fresh well containing DELFIA Enhancement Solution (100 μL/well; Perkin-Elmer) for the measurement of free (unbound) label. Enhancement Solution (100 μL/well) was added to the emptied wells for the measurement of bound label. The plate was shaken (Titer Plate Shaker speed setting of 5 for 5 minutes at room temperature) and time-resolved fluorescent (TRF) intensities were read using a Victor2 multi-label plate reader (Perkin-Elmer Wallac, Boston, Mas.).

Point of comparison: B11, Ki 0.44 nM. Against it:
- B6 — 3-fold higher, 1.34 nM
- B7 — 27-fold higher, 12 nM
- B8 — 3.2-fold higher, 1.4 nM
- B9 — within 1.5-fold, 0.64 nM
- B10 — 270-fold higher, 118 nM
- B12 — 460-fold higher, 202 nM
- B13 — 5.9-fold higher, 2.6 nM

Point of comparison: B12, “fold shift in potency compared to the hVH1.0, hVL1.0 variant” value 631 fold. Against it:
- B6 — lower, 4.2 fold
- B7 — lower, 36 fold
- B8 — lower, 4.2 fold
- B9 — lower, 1.9 fold
- B10 — lower, 358 fold
- B11 — lower, 1.3 fold
- B13 — lower, 7.9 fold

Biological target: T1, human platelet α2β1 integrin …
Assay: as above
Remark: another data set of the same source
Method: as §1

Point of comparison: B18, Ki 0.32 nM. Against it:
- B14 — within 1.5-fold, 0.35 nM
- B15 — within 1.5-fold, 0.29 nM
- B16 — within 1.5-fold, 0.33 nM
- B17 — within 1.5-fold, 0.38 nM
